The chains are these.
B1: ZNF649 (parent)
chain: LTEHKRIHTGKKPHVCSLCGKAFY
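Further: lentivirally expressed fusions sorted by FACS into six bins by GFP to DsRed ratio, PSI derived from sequencing read proportions per bin multiplied by bin number.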

In the series the parent is B1. Put plainly: protein stability index of a GFP-peptide fusion (GPS, HEK-293T) (PSI 1-6); higher = more stable. Conditions: c terminus: a fixed tail appended.
With LTEHKRIHTGKKPHVCSLCGKQFY, the protein stability index is 2.26.

Turning to LTEHKRIHTGKKPHVCSLCGKGFY, the protein stability index was found to be 2.56.

Turning to LTEHKRIHTGKKPHVCSLCGKNFY, the protein stability index was 3.23.

In the case of LTEHKRIHTGKKPHVCSLCGKDFY, the protein stability index came out at 2.51.

Turning to LTEHKRIHTGKKPHVCSLCGKFFY, the protein stability index was determined as 2.16.

Consider LTEHKRIHTGKKPHVCSLCGKAEY, for which the protein stability index stood at 3.69.

Take LTEHKRIHTGKKPHVCSLCGKAKY: the protein stability index turned out to be 3.87.

Turning to LTEHKRIHTGKKPHVCSLCGKAHY, the protein stability index was 4.3.

With LTEHKRIHTGKKPHVCSLCGKAPY, the protein stability index stood at 3.32.

With LTEHKRIHTGKKPHVCSLCGKAWY, the protein stability index was 1.52.

For LTEHKRIHTGKKPHVCSLCGKAAY, the protein stability index was 2.77.

In the case of LTEHKRIHTGKKPHVCSLCGKANY, the protein stability index came to 2.4.

As for LTEHKRIHTGKKPHVCSLCGKAMY, the protein stability index turned out to be 2.56.

Take LTEHKRIHTGKKPHVCSLCGKAIY: the protein stability index was determined as 2.45.

Turning to LTEHKRIHTGKKPHVCSLCGKACY, the protein stability index stood at 3.07.

Regarding LTEHKRIHTGKKPHVCSLCGKAGY, the protein stability index came out at 2.67.

Turning to LTEHKRIHTGKKPHVCSLCGKAQY, the protein stability index stood at 2.3.

For LTEHKRIHTGKKPHVCSLCGKAVY, the protein stability index was 2.32.

On to LTEHKRIHTGKKPHVCSLCGKAYY, for which the protein stability index is 2.47.

On to LTEHKRIHTGKKPHVCSLCGKARY, for which the protein stability index came out at 2.69.

Turning to LTEHKRIHTGKKPHVCSLCGKASY, the protein stability index came out at 2.97.

Take LTEHKRIHTGKKPHVCSLCGKATY: the protein stability index is 2.32.

As to LTEHKRIHTGKKPHVCSLCGKADY, the protein stability index came out at 3.98.

Regarding LTEHKRIHTGKKPHVCSLKGKAFY, the protein stability index is 2.64.

For LTEHKRIHTGKKPHVCSLLGKAFY, the protein stability index worked out at 2.24.

Consider LTEHKRIHTGKKPHVCSLIGKAFY, for which the protein stability index came to 1.75.

For the variant LTEHKRIHTGKKPHVCSLHGKAFY, the protein stability index is 3.06.

Consider LTEHKRIHTGKKPHVCSLVGKAFY, for which the protein stability index was 2.1.

Regarding LTEHKRIHTGKKPHVCSLRGKAFY, the protein stability index is 3.01.

With LTEHKRIHTGKKPHVCSLYGKAFY, the protein stability index is 2.15.

On to LTEHKRIHTGKKPHVCSLTGKAFY, for which the protein stability index turned out to be 2.24.

Turning to LTEHKRIHTGKKPHVCSLDGKAFY, the protein stability index is 3.3.

Take LTEHKRIHTGKKPHVCSLMGKAFY: the protein stability index amounted to 2.46.

Turning to LTEHKRIHTGKKPHVCSLEGKAFY, the protein stability index worked out at 3.09.

In the case of LTEHKRIHTGKKPHVCSLNGKAFY, the protein stability index is 2.89.

With LTEHKRIHTGKKPHVCSLSGKAFY, the protein stability index is 1.92.

For the variant LTEHKRIHTGKKPHVCSLGGKAFY, the protein stability index was found to be 2.39.

As for LTEHKRIHTGKKPHVCSLPGKAFY, the protein stability index amounted to 2.38.

LTEHKRIHTGKKPHVCSLFGKAFY: the protein stability index is 1.81.

Consider LTEHKRIHTGKKPHVCSLWGKAFY, for which the protein stability index turned out to be 1.3.

For the variant LTEHKRIHTGKKPHVCSLAGKAFY, the protein stability index is 2.65.

For LTEHKRIHTGKKPHVCSLQGKAFY, the protein stability index is 2.04.

Take LTEHKRIHTGKKPHVCELCGKAFY: the protein stability index turned out to be 2.84.

With LTEHKRIHTGKKPHVCILCGKAFY, the protein stability index is 2.48.

Turning to LTEHKRIHTGKKPHVCNLCGKAFY, the protein stability index came to 2.58.

In the case of LTEHKRIHTGKKPHVCALCGKAFY, the protein stability index was determined as 2.58.

With LTEHKRIHTGKKPHVCKLCGKAFY, the protein stability index worked out at 2.34.

Regarding LTEHKRIHTGKKPHVCQLCGKAFY, the protein stability index was determined as 2.46.

In the case of LTEHKRIHTGKKPHVCCLCGKAFY, the protein stability index came out at 1.96.

For LTEHKRIHTGKKPHVCYLCGKAFY, the protein stability index stood at 2.11.

On to LTEHKRIHTGKKPHVCPLCGKAFY, for which the protein stability index came out at 2.97.

Take LTEHKRIHTGKKPHVCWLCGKAFY: the protein stability index was found to be 2.72.

Consider LTEHKRIHTGKKPHVCMLCGKAFY, for which the protein stability index worked out at 2.83.

LTEHKRIHTGKKPHVCFLCGKAFY: the protein stability index came to 2.2.

Regarding LTEHKRIHTGKKPHVCLLCGKAFY, the protein stability index turned out to be 1.72.

With LTEHKRIHTGKKPHVCGLCGKAFY, the protein stability index was determined as 1.72.

For LTEHKRIHTGKKPHVCHLCGKAFY, the protein stability index stood at 2.01.

Consider LTEHKRIHTGKKPHVCVLCGKAFY, for which the protein stability index came to 1.49.

For the variant LTEHKRIHTGKKPHVCTLCGKAFY, the protein stability index was found to be 1.82.

For LTEHKRIHTGKKPHVCRLCGKAFY, the protein stability index turned out to be 1.94.

As for LTEHKRIHTGKKPHVCSYCGKAFY, the protein stability index stood at 2.2.

As for LTEHKRIHTGKKPHVCSSCGKAFY, the protein stability index was 2.89.

As to LTEHKRIHTGKKPHVCSACGKAFY, the protein stability index was 1.97.

As to LTEHKRIHTGKKPHVCSCCGKAFY, the protein stability index is 3.2.

Regarding LTEHKRIHTGKKPHVCSECGKAFY, the protein stability index was determined as 3.18.

For the variant LTEHKRIHTGKKPHVCSNCGKAFY, the protein stability index stood at 5.08.

As for LTEHKRIHTGKKPHVCSMCGKAFY, the protein stability index is 3.36.

On to LTEHKRIHTGKKPHVCSQCGKAFY, for which the protein stability index came to 2.9.

Take LTEHKRIHTGKKPHVCSVCGKAFY: the protein stability index came to 2.37.

Regarding LTEHKRIHTGKKPHVCSTCGKAFY, the protein stability index is 2.35.

LTEHKRIHTGKKPHVCSRCGKAFY: the protein stability index stood at 3.

LTEHKRIHTGKKPHVCSWCGKAFY: the protein stability index came to 1.7.

In the case of LTEHKRIHTGKKPHVCSHCGKAFY, the protein stability index turned out to be 3.13.

On to LTEHKRIHTGKKPHVCSDCGKAFY, for which the protein stability index was 2.84.

Regarding LTEHKRIHTGKKPHVCSICGKAFY, the protein stability index is 2.23.

For the variant LTEHKRIHTGKKPHVCSKCGKAFY, the protein stability index was 2.66.

With LTEHKRIHTGKKPHVCSPCGKAFY, the protein stability index worked out at 3.85.

As for LTEHKRIHTGKKPHVCSGCGKAFY, the protein stability index worked out at 2.82.

On to LTEHKRIHTGKKPHVCSLCGKAFN, for which the protein stability index turned out to be 1.43.

As for LTEHKRIHTGKKPHVCSLCGKAFQ, the protein stability index was 3.04.

As for LTEHKRIHTGKKPHVCSLCGKAFT, the protein stability index was 3.42.

Turning to LTEHKRIHTGKKPHVCSLCGKAFG, the protein stability index is 3.35.

On to LTEHKRIHTGKKPHVCSLCGKAFA, for which the protein stability index was 2.88.

As to LTEHKRIHTGKKPHVCSLCGKAFK, the protein stability index is 3.3.

On to LTEHKRIHTGKKPHVCSLCGKAFM, for which the protein stability index came to 2.69.

In the case of LTEHKRIHTGKKPHVCSLCGKAFE, the protein stability index amounted to 2.82.

With LTEHKRIHTGKKPHVCSLCGKAFH, the protein stability index was determined as 3.35.

With LTEHKRIHTGKKPHVCSLCGKAFL, the protein stability index turned out to be 3.01.

LTEHKRIHTGKKPHVCSLCGKAFC: the protein stability index was determined as 3.33.

For the variant LTEHKRIHTGKKPHVCSLCGKAFI, the protein stability index was found to be 1.81.

Regarding LTEHKRIHTGKKPHVCSLCGKAFR, the protein stability index turned out to be 2.42.

For the variant LTEHKRIHTGKKPHVCSLCGKAFP, the protein stability index was 3.45.

On to LTEHKRIHTGKKPHVCSLCGKAFV, for which the protein stability index was 2.33.

In the case of LTEHKRIHTGKKPHVCSLCGKAFD, the protein stability index worked out at 3.12.

The record behind these values is the supplement of paper PMC10567573.
